# Measurements as given in the supplement of paper PMC9170038.
# Test system: MS2 coat protein
# Assay: apparent KD of MS2 coat protein; higher = weaker reporter binding
# Details: Eterna round: R107
# Procedure, shortened: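 Illumina sequencing clusters were used for on-chip transcription of designed RNA switches. Titration with SNAP-549-labelled MS2 coat protein followed, in twofold steps from 0.7 or 1.5 nM to 3 µM in 100 mM Tris-HCl pH 7.5, 80 mM KCl, 4 mM MgCl2, without or with constant ligand. Apparent KD is each design's median of fits to normalised cluster binding curves.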
# [1] = input ligand: theophylline 20 uM
# [2] = input ligand: theophylline 2 mM
# [3] = input ligand: tryptophan 2.4 mM
sequence,measurement,setting,value
UCAUUUUUCACGGCCGCCACUUCAAGGUCCUGAGGCUGGGCAACACAUGAGGAUCACCCAUGUCGAAGGACCGGGUGAAGCUACC [theeternabot_sameState_MS2_Trp_B_34],apparent KD of MS2 coat protein,input ligand: arginine 13.2 mM,152 nM
same,apparent KD of MS2 coat protein,[1],248 nM
same,apparent KD of MS2 coat protein,[2],527 nM
UCCAUCGGCGGAAGCCGAUGGUUUACAGAAGGAGCGUAGGAAACUACAGGUAGGUCGCUGGACAUGAGGAUCACCCAUGUGUUUU [SSAA #12],apparent KD of MS2 coat protein,input ligand: arginine 13.2 mM,24.4 nM
same,apparent KD of MS2 coat protein,input ligand: none,26.5 nM
same,apparent KD of MS2 coat protein,[1],22.4 nM
same,apparent KD of MS2 coat protein,[2],30 nM
same,apparent KD of MS2 coat protein,[3],20.8 nM
UCGCCCGGGUCGGCCGCCACUGAGGUGAUAUGACAUGAGGAUCACCCAUGUUGUCAUGUGGAACAUAGGACCGGGACCCGGGCGA [Exclusion - Tryptophan B Attempt #2 (HarryS)],apparent KD of MS2 coat protein,input ligand: arginine 13.2 mM,15.7 nM
same,apparent KD of MS2 coat protein,input ligand: none,18.5 nM
same,apparent KD of MS2 coat protein,[1],47.6 nM
same,apparent KD of MS2 coat protein,[2],19.6 nM
same,apparent KD of MS2 coat protein,[3],17.8 nM
UCGCUCUGGGUGAAUUCCGGAGAUGUGGAAGGAGCGGACGAAAGUCCAGGUAGGUCGCCAUCGAACAUGAGGAUCACCCAUGUAC [Same State - Arginine A (Freestyle 24)],apparent KD of MS2 coat protein,input ligand: arginine 13.2 mM,55.8 nM
same,apparent KD of MS2 coat protein,input ligand: none,93.2 nM
same,apparent KD of MS2 coat protein,[1],105 nM
same,apparent KD of MS2 coat protein,[2],165 nM
same,apparent KD of MS2 coat protein,[3],93.7 nM
UCGUGAGUUUCGGAUACCAGUGUGGUCGAUACAUGAGGAUCACCCAUGUUAGAGGAGGUACACCCUUGGCAGCCGGCUGUGGCGG [hlhmullin],apparent KD of MS2 coat protein,input ligand: arginine 13.2 mM,31.4 nM
same,apparent KD of MS2 coat protein,input ligand: none,23.5 nM
same,apparent KD of MS2 coat protein,[1],35.4 nM
same,apparent KD of MS2 coat protein,[2],18.1 nM
same,apparent KD of MS2 coat protein,[3],25 nM
UCGUGUAUAUCGGAUACCAGUGAAAACGAUACAUGAGGAUCACCCAUGUGAGUUGAUGUACACCCUUGGCAGCUGUAUAUAUCUA [fokullin],apparent KD of MS2 coat protein,input ligand: arginine 13.2 mM,16.1 nM
same,apparent KD of MS2 coat protein,[1],22.7 nM
same,apparent KD of MS2 coat protein,[3],18.6 nM
"UCGUGUAUAUCGGAUACCAGUGAAAUCGAUACAUGAGGAUCACCCAUGUGAGAGGAUGUACACCCUUGGCAGCUGUAUAUAUCUG [ll,lmullin]",apparent KD of MS2 coat protein,input ligand: arginine 13.2 mM,18 nM
same,apparent KD of MS2 coat protein,[1],25.1 nM
same,apparent KD of MS2 coat protein,[3],20.4 nM
UCUAACAUGAGGAUCACCCAUGUACCGUCCCGAGGACCGGUACGGCCGCCACUCGUCUUGCUAAAACUGAAGUGAUCACAAGCCU [theeternabot_sameState_MS2_Trp_A_2],apparent KD of MS2 coat protein,input ligand: arginine 13.2 mM,25.2 nM
same,apparent KD of MS2 coat protein,[1],30.9 nM
same,apparent KD of MS2 coat protein,[2],24.6 nM
UGACAUUGCUCAGAUACCAGACGUGAGGAUCACCCACGUGCCAACAUGAGGAUCACCCAUGUCCCUUGGCAGCUGAGCAAUGUCU,apparent KD of MS2 coat protein,input ligand: arginine 13.2 mM,12.8 nM
same,apparent KD of MS2 coat protein,[1],24.1 nM
same,apparent KD of MS2 coat protein,[3],15.5 nM
UGAGAGGGCGGAAGGAGCGACAUGAGGAUCACCCAUGUCUCCCGUUAUGGGAGUUCUUUAGGUCAGGUAGGUCGCCGGCCUCUCA [#1 Exclusion - Arginine B Attempt #10 (Inspired by Omei)],apparent KD of MS2 coat protein,input ligand: arginine 13.2 mM,94.3 nM
same,apparent KD of MS2 coat protein,input ligand: none,122 nM
same,apparent KD of MS2 coat protein,[1],104 nM
same,apparent KD of MS2 coat protein,[2],127 nM
same,apparent KD of MS2 coat protein,[3],111 nM
UGGCAAGAGGGAAGGAGCGUCAGCUGAGUCACAUGAGGAUCACCCAUGUAGCACAUAGUGUGACAGGUAGGUCGCCCUCUGCCGU [SS-ArgB10],apparent KD of MS2 coat protein,input ligand: arginine 13.2 mM,6.72 nM
same,apparent KD of MS2 coat protein,input ligand: none,8.82 nM
same,apparent KD of MS2 coat protein,[1],10.1 nM
same,apparent KD of MS2 coat protein,[2],10.3 nM
same,apparent KD of MS2 coat protein,[3],9.62 nM
UGGGAAGGAGGAAGGAGCGCCAUAAGGGUGACAGUCUGGGUACAUGAGGAUCACCCAUGUAGGCAGGUAGGUCGCCUCGCUCUCA [XArg-B15],apparent KD of MS2 coat protein,input ligand: arginine 13.2 mM,26.2 nM
same,apparent KD of MS2 coat protein,input ligand: none,9.53 nM
same,apparent KD of MS2 coat protein,[1],12.8 nM
same,apparent KD of MS2 coat protein,[2],14.3 nM
same,apparent KD of MS2 coat protein,[3],12.5 nM
UGGGCUGGGUGCGUAAAGGGCCUGGCGCAUCGAGGACCGGUACGGCCGCCACUCGGCUGUACAUGAGGAUCACCCAUGUCAGGGU [#1 Same State - Tryptophan A Attempt #18 (HarryS)],apparent KD of MS2 coat protein,input ligand: arginine 13.2 mM,45.9 nM
same,apparent KD of MS2 coat protein,input ligand: none,192 nM
same,apparent KD of MS2 coat protein,[1],552 nM
same,apparent KD of MS2 coat protein,[2],506 nM
same,apparent KD of MS2 coat protein,[3],364 nM
UGGGUCGGAUGAGGAAAUUGUCCGACGUAUCGAGGACCGGUACGGCCGCCACUCGGUUGUACAUGAGGAUCACCCAUGUCAGGGU [#1 Same State - Tryptophan A Attempt #15 (HarryS)],apparent KD of MS2 coat protein,input ligand: arginine 13.2 mM,194 nM
same,apparent KD of MS2 coat protein,input ligand: none,218 nM
same,apparent KD of MS2 coat protein,[1],269 nM
same,apparent KD of MS2 coat protein,[2],327 nM
same,apparent KD of MS2 coat protein,[3],128 nM
